Experiments:
Assay in all cases: fluorescence polarisation; two-dimensional fluorescence anisotropy; 14-3-3β titrated to FITC-labeled F1, F2, F3, F4 or pepD (10 nM) with varying concentrations of ChREBP peptide; fitted to a thermodynamic cooperativity model with KD II fixed at 1.5 µM; n = 2
Conditions in all cases: both partners purified
macrocycle F3 = biological target: T1, macrocycle F3 (not fully specified; fluorescein isothiocyanate (FITC) on the side chain of the first lysine; β-alanine after it; phosphoserine; triazole from azido phenylalanine (replacing Nph(+1)) cyclised to the …)
T1 chain: SFSXFKXK

macrocycle F4 = biological target: T2, macrocycle F4 (not fully specified; fluorescein isothiocyanate (FITC) on the side chain of the first lysine; β-alanine after it; phosphoserine; triazole from azido phenylalanine (replacing Nph(+1)) cyclised to the …)
T2 chain: SFSXFKXK

macrocycle F1 = biological target: T3, macrocycle F1 (not fully specified; fluorescein isothiocyanate (FITC) on the side chain of the first lysine; β-alanine after it; phosphoserine; triazole from azido phenylalanine (replacing Nph(+1)) cyclised to the …)
T3 chain: SFSXFKXK

FITC-labeled pepD = FITC-labeled pepD (FITC label (position not given); phosphoserine (pSer); 4-nitrophenylalanine Nph(+1) and Nph(+4), counting from pSer)

B1: 14-3-3β (natural protein, UniProt P31946 1-246, looked up)
chain: MTMDKSELVQKAKLAEQAERYDDMAAAMKAVTEQGHELSNEERNLLSVAYKNVVGARRSSWRVISSIEQKTERNEKKQQMGKEYREKIEAELQDICNDVLELLDKYLIPNATQPESKVFYLKMKGDYFRYLSEVASGDNKQTTVSNSQQAYQEAFEISKKEMQPTHPIRLGLALNFSVFYYEILNSPEKACSLAKTAFDEAIAELDTLNEESYKDSTLIMQLLRDNLTLWTSENQGDEGDAGEGEN
notes: 14-3-3 protein, beta isoform; also called 14-3-3 protein
Question: B1 was tested. Which “cooperativity factor α with ChREBP peptide” value (from here on “cooperativity factor α”) (macrocycle F3) did it give?
Answer: 12 ± 1

Question: And the “cooperativity factor α” value (macrocycle F4)?
Answer: 42 ± 1

Question: What about the “cooperativity factor α” value (macrocycle F1) of the same binder?
Answer: 339 ± 35

Question: And the “cooperativity factor α” value (FITC-labeled pepD)?
Answer: 38 ± 2
